# Test system: Saccharomyces cerevisiae
# Test: transcriptional activation domain activity (GFP:mCherry ratio, weighted mean of sorted bins, harmonized to initial dataset scale) (arbitrary fluorescence ratio units); higher = stronger transcriptional activation
# Settings: beta-estradiol 1 µM; induction time 4 h
# Summary of the method: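 In diploid yeast carrying a GFP reporter, barcoded protein tiles fused to an estradiol-inducible synthetic transcription factor were integrated at the URA3 locus. Cultures diluted 1:5 into SC with 1 uM beta-estradiol were kept at 30 °C for 4 hours, then sorted by GFP:mCherry ratio into 8 bins before barcode sequencing. Tiles with under 50 reads were excluded. The activation activity reported here is the read-weighted mean of bin median fluorescence, averaged across barcodes and linearly rescaled to the initial dataset.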
row,Sequence,transcriptional activation domain activity
1,LRRGFSKLLLIDDLYVLDKHLRSDRLRDLLWSAYVRAIVPRLCLIAFNFCQPF,60800
2,ELGLLADIMQHEIQGFWGLIKILAKRRKNKYHANMADVNMRSVFQKAFTSWMM,44500
3,MRRFSLFFSLSSLCLWLYVCWIGWIDGFLLVDVMVHLQHVYCVLTILIFLFSL,22300
4,RGGGRKKKEADGEDGETTPKKTPRKRAAKEAEDGDASPKKKGRPAKAKPRQEP,17900
5,EPGEEYHHSNGTNTDNNETTGADDTDDNNNNNNNNNKNGNNSSSTINNNNNNY,35700
6,SLLQHLAEYFICFDSVVSFLLTLVVNVFRLTSFGIIRLVGWRPVVFFFFPSIY,50900
7,MGSQLPHLQLSDTDGAGPMKRRRPALACVECRRRKVKCDRKKPCSPCTRIKSL,69900
8,MARLHIGQLCSRSFFYALLVLSTWSSKLVYLWPHLTSSLPPLLIVLYIPTFLL,72900
9,MCFRILLSFLHVHPLFENALFYEISLICLLISWRSSTCSMHLLFIFIFILFFC,42200
10,IYFTFRILLYAIWCALAKVHRWNKTTLWNTLCKYLSRLVAATKSRTKTHAPWL,49300
11,YVVLEVGLNVQLDRMAQSDARMVVHALSGGPFIDVVRWVPLRMSSGAFQIGLR,68300
12,ESPSPDQEEEVEDRENDKPKANTAKKAKPAEGKKTGGRKKAALGGAAKKKAEK,43300
13,MFRPYSKFVLPSFFDIVLIYIFQEFGREALIWCQLCLQRVLPFLGLYHMGEML,38500
14,KTRGFQEGVSLTVYDELARWEKYAYGCNELIFHPMRYWPTRGPFTKLFIRFIF,41600
15,TKIGTGMGEQMLSREYYYIGTQLPLDRFLTFYYAHPGFHVNNIFIMLSVQLFM,51100
16,EEDEEDEDDDDDDDDDDDDDDDDDDEKPVHHKKPAHHRHHHKSKPVHHESQPA,< 6570
17,MPPLLQLRLVHFLQLCLLLLLLLLRLHLLELLHFLLVFLLHRSILLLCQICSL,54800
18,IHVESRLPEMRATLEPKRYVHVARFFSHLIIYFRLLHRPLPASTCNSMLRHYV,47400
19,YILAVGLILRLISYLSRAKVRLMYHWSELWRNLLSLIRFLNTYSADLLSSSTP,66700
20,EKRHEKKKGSRDISGADDRSSGRSKDRRDHSSRGSSRKRHGSRRDKDRDLEDG,25700
21,MFCPDVCLVLSIGDVLLAMSYWRCLRETASLFHYHLVPPFELLPLYSVRITAA,58800
22,IHRLTFFFFFCFFFFFFCLFSFSVSFFFFLFFFFLFSTSLLARRFLSLFSSVA,50100
23,LPTSFLEYCFRLICLWKPHLIREYFKEWFIFPNVVGWKYILQTFFNILEHVHD,46600
24,FLLTLLCMEVVLHFDYCVAISKANPDWSKYTPIQLSLLSYFNLHILWLKLLIP,63400
25,WLLCQVPTRNLGVLVFDSSKRYHLVHPDSPTGEQRHTQFVIVLFIVAFIRGVA,47700
26,YPNLSGNTFICSSRGSITGRMTVSGDDFIASQYDYSYSHVWRNLGILIAFWIF,53500
27,GWAFGTKNEDGFQLFDCTGEALGVILRLSHILRHVTTFWRLRTAVDLLLQAQC,58900
28,FSFFFFLFSLFLSFPSFLLPSFLLLFLSFYFSPSYLLLCLFSLIFYKLWPLFL,25500
29,GDSTNGNNSPVEDEANLRRKAKKRREKEREREEKKRVGRREKAKKTNGGEKQG,27000
30,PYIAYPLKPCLSGPLCELYPSTSNLWAMCLHLILVCIQVPFLLSTPFWLLLPL,74200

# From the supplement of paper PMC12636428
